Laboratory results taken from patent US20260204353A1.

Target: - (UniProt P08069)
Test: ELISA
Conditions: scFv

- EC50: 24 nM
Substance: Teprotumumab scFv mutant into which the consensus sequences were introduced (H16G, L60D, and L85D)
